# PMC7642778
# Key:
# [1] = target: monothiol glutaredoxin-1 from Clostridium oremlandii (C16S) (Clostridium oremlandii (strain OhILAs)); experiment: crystal structure; m-cGrx1–cMsrA complex (β3-swap), formed by incubation with 5 mM methionine sulfoxide at 4°C for 2 h and purified on Superdex 75; crystals from 0.1 M sodium phosphate/citric acid pH 4.2, 0.4 M potassium phosphate (dibasic)/1.6 M sodium phosphate (monobasic), 20°C
# [2] = target: dithiol glutaredoxin-1 from Clostridium oremlandii (strain OhILAs) (Clostridium oremlandii (strain OhILAs)); experiment: crystal structure; d-cGrx1 alone; crystals from 0.1 M sodium phosphate/citric acid pH 4.2, 0.2 M lithium sulfate, 20% PEG 1000, 20°C
# [3] = target: monothiol glutaredoxin-1 from Clostridium oremlandii (C16S) (Clostridium oremlandii (strain OhILAs)); experiment: crystal structure; m-cGrx1 alone (β1-swap), formed in the presence of hydrogen peroxide; crystals from 0.1 M HEPES pH 7.5, 20% PEG 400, 8% PEG 8000, 20°C
substance,measurement,setting,value
methionine sulfoxide reductase A from Clostridium oremlandii (enzyme),stoichiometry N (cGrx1 per cMsrA (four cGrx1 : two cMsrA)),[1],2
dithiol glutaredoxin-1 from Clostridium oremlandii (strain OhILAs) (enzyme),stoichiometry N,[2],2
monothiol glutaredoxin-1 from Clostridium oremlandii (C16S) (enzyme),stoichiometry N,[1],4
same,stoichiometry N,[3],4
